{"source": "patent US20240239878A1", "about": "(SHANGHAI QILU PHARMACEUTICAL RESEARCH AND DEVELOPMENT CENTRE, published 2024)", "binders": {"B1": {"name": "hDLL3-3-1-NA humanized antibody variant (antibody, V domains shown)", "VH": "EVQLVESGGGLVQPGGSLRLSCAASTYTISSGYMGWFRQAPGKEREGVAAIYIGGSTTLYADSVKGRFTISRDNSKNTLYLQMNSLRAEDTAVYYCAAQLRPNAAYHPLDGRKYNYWGQGTLVTVSS"}, "B2": {"name": "hDLL3-3-1-QS humanized antibody variant (antibody, V domains shown)", "VH": "B1 VH with N103Q, A104S"}, "B3": {"name": "H2-45E4D7 mouse hybridoma-derived humanized anti-DLL3 antibody (antibody, V domains shown)", "VH": "QVQLVQSGAEVKKPGASVKVSCKASGYTFTSHWITWVRQAPGQGLEWMGDIYPISGSTNNNEKFRNRVTMTRDTSTSTVYMELSSLRSEDTAVYYCAKIITVGGAYVMDYWGQGTLVTVSS", "VL": "EIVMTQSPATLSVSPGERATLSCRASQSVRNNLHWYQQKPGQAPRLLIKYVSQSISGIPARFSGSGSGTEFTLTISSLQSEDFAVYYCQQSNSWPLTFGGGTKLEIK"}}, "key": {"[1]": {"target": "T1, human DLL3 on SHP-77 cells (human, UniProt Q9NYJ7 27-618)", "T1 construct": "also called DLL3-expressing cells (SHP-77)", "T1 sequence": "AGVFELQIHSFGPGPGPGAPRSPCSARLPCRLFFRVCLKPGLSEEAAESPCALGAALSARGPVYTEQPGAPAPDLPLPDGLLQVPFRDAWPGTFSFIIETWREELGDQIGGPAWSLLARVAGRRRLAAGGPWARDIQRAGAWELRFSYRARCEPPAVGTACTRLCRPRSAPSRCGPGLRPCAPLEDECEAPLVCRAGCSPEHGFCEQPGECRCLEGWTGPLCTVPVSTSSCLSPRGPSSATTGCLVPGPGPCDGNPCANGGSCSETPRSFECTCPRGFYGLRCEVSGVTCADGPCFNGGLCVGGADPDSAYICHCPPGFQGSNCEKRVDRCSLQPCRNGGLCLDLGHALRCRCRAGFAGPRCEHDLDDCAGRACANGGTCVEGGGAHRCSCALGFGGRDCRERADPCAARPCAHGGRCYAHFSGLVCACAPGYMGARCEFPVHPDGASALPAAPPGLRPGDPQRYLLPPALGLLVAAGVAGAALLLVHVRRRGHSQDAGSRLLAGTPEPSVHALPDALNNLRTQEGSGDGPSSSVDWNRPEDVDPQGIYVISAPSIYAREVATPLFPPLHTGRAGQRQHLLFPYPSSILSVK", "assay": "flow cytometry, SHP-77 cells"}, "[2]": {"target": "T2, human DLL3 antigen protein (Kactus Biosystems, Cat. No. DLL-HM103) (human, UniProt Q9NYJ7 27-492)", "T2 sequence": "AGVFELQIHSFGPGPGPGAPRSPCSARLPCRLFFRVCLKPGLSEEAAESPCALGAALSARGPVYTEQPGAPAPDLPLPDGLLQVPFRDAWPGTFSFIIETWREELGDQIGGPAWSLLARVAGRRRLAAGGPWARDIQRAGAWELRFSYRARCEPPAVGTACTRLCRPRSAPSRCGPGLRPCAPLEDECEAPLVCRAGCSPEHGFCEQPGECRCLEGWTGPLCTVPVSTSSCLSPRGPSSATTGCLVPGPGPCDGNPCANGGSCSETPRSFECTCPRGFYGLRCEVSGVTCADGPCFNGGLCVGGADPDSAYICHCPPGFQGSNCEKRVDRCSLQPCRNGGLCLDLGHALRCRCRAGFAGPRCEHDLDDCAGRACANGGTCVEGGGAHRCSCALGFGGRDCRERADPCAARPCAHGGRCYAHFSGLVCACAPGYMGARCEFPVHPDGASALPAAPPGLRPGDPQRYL", "assay": "affinity assay with human DLL3 antigen protein (kinetics; method not restated, Biacore as in Example 10 implied)"}, "[3]": {"target": "T2, human DLL3 antigen protein (Kactus …)", "assay": "SPR (Biacore 8K), antibody captured on anti-human Fc, DLL3 in solution", "description": "The affinity and kinetic properties of the humanized anti-DLL3 antibody to human DLL3 were analyzed using a Biacore 8K instrument. CM5 chips were activated with EDC and NHS, followed by immobilization of anti-human Fc murine mAb and blocked with ethanolamine.\nHuman DLL3 was diluted two-fold serially to serial concentrations (100 nM-0.39 nM) and associated for 90 s and dissociated for 600 s at a flow rate of 50 μL/min.\nAfter completion of each round of the experiment, the captured antibody was removed together with the antigen by washing with a 3M MgCl₂ solution at a flow rate of 30 μL/min for 30 s to complete the regeneration of the chip. The raw data were analyzed using Biacore Insight Evaluation Software (3.0.12.15655) software and fitted with a (1:1) Langmuir model with."}, "[4]": {"target": "T3, human DLL4 (Sino Biological, Cat. No. 10171-H08H) (human, UniProt Q9NR61 27-529)", "T3 construct": "also called family protein DLL4", "T3 sequence (Q9NR61 27-529 limits assumed)": "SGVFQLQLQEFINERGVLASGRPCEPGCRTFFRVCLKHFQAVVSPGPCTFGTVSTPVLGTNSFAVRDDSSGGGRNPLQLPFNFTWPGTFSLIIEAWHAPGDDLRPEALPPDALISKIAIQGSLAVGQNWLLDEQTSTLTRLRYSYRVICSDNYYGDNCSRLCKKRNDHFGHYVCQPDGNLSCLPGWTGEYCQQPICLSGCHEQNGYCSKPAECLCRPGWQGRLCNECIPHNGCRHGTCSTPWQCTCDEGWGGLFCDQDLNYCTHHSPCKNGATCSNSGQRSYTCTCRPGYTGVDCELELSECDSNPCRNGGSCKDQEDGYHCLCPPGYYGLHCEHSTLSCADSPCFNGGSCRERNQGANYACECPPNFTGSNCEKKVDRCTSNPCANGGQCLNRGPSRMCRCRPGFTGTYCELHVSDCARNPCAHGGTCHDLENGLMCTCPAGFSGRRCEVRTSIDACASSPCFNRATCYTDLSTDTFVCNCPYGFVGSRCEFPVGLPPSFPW", "assay": "ELISA, plate coated with human DLL4 at 1 ug/mL, OD 450nm", "description": "(§1) The antigenic proteins human DLL1 (SinoBiological, cat. No. 11635-H08H) or human DLL4 (SinoBiological, cat. No. 10171-H08H) were dissolved in 1×PBS at a concentration of 1 μg/mL. […] The antigen was washed three times with PBST, 300 μL/well. The antigen was blocked with 1% BSA (in PBST), 200 µL/well, and incubated at 37° C. for 1.5 hours.\n(§2) Antibodies to be tested were diluted with 1% BSA (in PBS) at a starting concentration of 100 nM, downwards by a 10-fold gradient for 7 concentrations. The plates were washed three times with PBST, 300 μL/well. The diluted antibody was added to an ELISA plate at 100 μL/well and incubated at room temperature for 2 hours. The antibodies were washed three times with PBST, 300 μL/well. The secondary antibodies (goat anti-human IgG Fc for DLL4 (HRP), 1:20000 dilution; HRP goat anti-mouse IgG (H+L) for DLL1, 1:10000 dilution) were diluted with 1% BSA in PBST. The diluted secondary antibodies were added to the ELISA plate at 100 μL/well and incubated at room temperature for 1 hour. The plates were washed 6 times with PBST, 300 μL/well. The developing solution (TMA and TMB 1:1 mixed) was prepared. The developing solution was added to the plate, 100 μL/well, and incubated in the dark for 5 min. 50 μL of ELISA stop solution was added to the plate and shaken well."}, "[5]": {"target": "T1, human DLL3 on SHP-77 cells", "assay": "flow cytometry, SHP-77 cells", "in_short": "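Trypsinised SHP-77 cells in 1% BSA/PBS were incubated with antibody (100 nM top, 10-fold steps, 7 concentrations) for 1 h at 4° C. Bound antibody was detected with goat anti-human IgG Fc-PE for 0.5 h at 4° C and read as PE mean fluorescence intensity. EC50 and Top MFI were derived from the curves.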", "remark": "listed apart in the source"}, "[6]": {"target": "T4, human DLL1 (Sino Biological, Cat. No. 11635-H08H) (human, UniProt O00548 18-545)", "T4 construct": "also called family protein DLL1", "T4 sequence": "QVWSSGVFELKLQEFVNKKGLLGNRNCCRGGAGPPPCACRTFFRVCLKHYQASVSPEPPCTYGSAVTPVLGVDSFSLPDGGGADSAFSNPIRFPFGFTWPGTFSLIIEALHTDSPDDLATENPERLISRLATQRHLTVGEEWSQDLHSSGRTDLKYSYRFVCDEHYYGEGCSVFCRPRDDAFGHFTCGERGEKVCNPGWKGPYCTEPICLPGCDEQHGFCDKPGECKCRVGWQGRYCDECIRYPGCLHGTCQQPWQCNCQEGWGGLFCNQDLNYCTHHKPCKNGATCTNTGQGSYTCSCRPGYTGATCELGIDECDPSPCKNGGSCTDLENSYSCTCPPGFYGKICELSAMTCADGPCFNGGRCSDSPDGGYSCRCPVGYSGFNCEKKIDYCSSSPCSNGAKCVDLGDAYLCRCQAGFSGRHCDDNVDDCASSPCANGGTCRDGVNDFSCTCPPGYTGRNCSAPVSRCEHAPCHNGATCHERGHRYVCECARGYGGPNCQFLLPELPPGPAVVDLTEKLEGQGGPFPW", "assay": "ELISA, plate coated with human DLL1 at 1 ug/mL, OD 450nm", "description": "as §1, §2"}}, "note": "Residue numbers refer to the chain shown, from its start. Like-named read-outs stand apart in the source and are kept apart here."}
{"binder": "B1", "values": [{"measurement": "EC50", "setting": "[1]", "value": 0.104, "unit": "nM"}, {"measurement": "Top MFI", "setting": "[1]", "value": 1270, "unit": "MFI"}, {"measurement": "Kd", "setting": "[2]", "value": 0.105, "unit": "nM"}, {"measurement": "koff", "setting": "[2]", "value": 0.000135, "unit": "s⁻¹"}, {"measurement": "kon", "setting": "[2]", "value": "1.29e+06", "unit": "M⁻¹ s⁻¹"}]}
{"binder": "B2", "values": [{"measurement": "EC50", "setting": "[1]", "value": 0.055, "unit": "nM"}, {"measurement": "Top MFI", "setting": "[1]", "value": 1010, "unit": "MFI"}, {"measurement": "Kd", "setting": "[2]", "value": 5.02, "unit": "nM"}, {"measurement": "koff", "setting": "[2]", "value": 0.00611, "unit": "s⁻¹"}, {"measurement": "kon", "setting": "[2]", "value": "1.22e+06", "unit": "M⁻¹ s⁻¹"}]}
{"binder": "B3", "values": [{"measurement": "Kd", "setting": "[3]", "value": 0.246, "unit": "nM"}, {"measurement": "koff", "setting": "[3]", "value": "5.78e-05", "unit": "s⁻¹"}, {"measurement": "kon", "setting": "[3]", "value": 235000, "unit": "M⁻¹ s⁻¹"}, {"measurement": "binding result", "setting": "[4]", "value": "no binding (tested: 100 nM)"}, {"measurement": "EC50", "setting": "[5]", "value": 2.23, "unit": "nM"}, {"measurement": "Top MFI", "setting": "[5]", "value": 1610, "unit": "MFI"}, {"measurement": "binding result", "setting": "[6]", "value": "no binding (tested: 100 nM)"}]}
